From publication PMC3951674 come the findings set out here.

Read-outs that look alike come from different tables or passages of the source.

The stoichiometry N is the number of molecules, sites or subunits per partner or assembly. As a reminder, the Kd is the constant that tells how readily two partners part at equilibrium. Read a high Kd as a looser complex.

Assay [1] concerns the target L43A ubiquitin (UniProt P0CG48). Kind of assay: NMR titration.
The target is the same in assay [2]. Kind of assay: NMR titration. This is another data set of the same source.
Assay [3] shares this target. The experiment in a line: 15N T1 relaxation.

In the assay with L43A ubiquitin [1], “UBA2 domain of hHR23a (from UniProt P54725 1-363) (domain or fragment)” displayed a stoichiometry N of 1.
In the case of “ubiquilin-1 UBA domain (UQ1-UBA) construct (from UniProt Q9UMX0 541-586) (domain or fragment)”, the dissociation constant (Kd) with L43A ubiquitin [1] stood at 26 µM; with L43A ubiquitin [2], 28 µM. This substance also registered a stoichiometry N with L43A ubiquitin [3] of 1.
